Measurements: patent US20040224337

How the values were obtained:
FAS = FAS (UniProt P25445)
[1] = tested on: FASpTyr275 peptide (Biotin-KKEAY(PO3)DTLI-COOH)

Sequence of UniProt P25445 (P25445 26-335): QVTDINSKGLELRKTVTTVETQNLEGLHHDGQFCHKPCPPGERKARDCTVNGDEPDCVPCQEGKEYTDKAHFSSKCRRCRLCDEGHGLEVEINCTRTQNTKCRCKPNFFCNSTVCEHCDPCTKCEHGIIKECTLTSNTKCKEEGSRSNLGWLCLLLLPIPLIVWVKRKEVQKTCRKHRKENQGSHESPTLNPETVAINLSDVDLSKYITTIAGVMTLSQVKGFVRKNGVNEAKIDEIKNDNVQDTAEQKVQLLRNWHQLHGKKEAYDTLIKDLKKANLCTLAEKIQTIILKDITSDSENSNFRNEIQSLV

Q: Which results are given for PTPL1/FAP-1?
A: tyrosine phosphorylation of immunoprecipitated FAS (PY20-HRP blot after incubation in phosphatase reaction buffer) (FAS): endogenous FAP-1 dephosphorylates FAS; in vitro phosphatase assay (dephosphorylation relative to vector as percent activity) [1]: FAP-1 immunoprecipitated from overexpressing cells dephosphorylates the biotinylated phospho-peptide (FASpY275) in an in vitro phosphatase assay
